Assay results from US20210246166A1 (Bayer, published 2021).
Numbered stars: 1 amine (or outer) side, 2 acyl side, 3 side chain; on linkers, the order of the positions; unused ones are H or OH. Bridge positions count the residues as written; N and C are the ends. Square brackets hold non-standard residues; d marks the D form. Ends that are not written are not given here. * marks the point of attachment. X11 = (S)‑Piperidine‑3‑carboxylic acid, O=C([C@H]1CCCN([*:1])C1)[*:2]; NH(CH2CH2O)5CH2CO = O=C(COCCOCCOCCOCCOCCN[*:1])[*:2]; PEG9 = NCCOCCOCCOCCOCCOCCOCCOCCOCCOCCC(=O)O; Benzoyl(3-COOH) = O=C(O)c1cccc(C(=O)*)c1; Benzoyl(4-COOH) = O=C(O)c1ccc(C(=O)*)cc1; Nip(3R) = O=C([C@@H]1CCCN([*:1])C1)[*:2]; Oic = O=C(O)[C@@H]1C[C@@H]2CCCC[C@@H]2N1; PEG8 = NCCOCCOCCOCCOCCOCCOCCOCCOCCC(=O)O; tBuAla = CC(C)(C)C[C@H](N)C(=O)O; Pen = CC(C)(S)[C@H](N)C(=O)O; PEG2 = NCCOCCOCCC(=O)O; Sar = CNCC(=O)O

B1: Ala-1 SFMI-1 amide, AIC+SRSLPPIC+IPD-NH2 (Reference No B) (peptide)
peptide: AICSRSLPPICIPD-NH2
modifications: disulfide 3-11; also: TFA salt
B2: SFMI-1, GIC+SRSLPPIC+IPD-OH (Reference No 1) (peptide)
peptide: GICSRSLPPICIPD-OH
modifications: disulfide 3-11; also: TFA salt
B3: Ala-1 SFMI-1 HCl amide, AIC+SRSLPPIC+IPD-NH2 (HCl Salt) (Reference No C) (peptide)
peptide: AICSRSLPPICIPD-NH2
modifications: disulfide 3-11; also: HCl salt
B4: ((R)-Piperidine-3-Carboxylic Acid)-IC+SRSLP-(Oic)-I-(Pen)+IPD-OH (peptide)
peptide: [Nip(3R)]ICSRSLP[Oic]I[Pen]IPD-OH
modifications: disulfide 3-11; N-terminus assumed
SMILES: CC[C@H](C)[C@H](NC(=O)[C@@H]1CCCNC1)C(=O)N[C@H]1CSSC(C)(C)[C@@H](C(=O)N[C@H](C(=O)N2CCC[C@H]2C(=O)N[C@@H](CC(=O)O)C(=O)O)[C@@H](C)CC)NC(=O)[C@H]([C@@H](C)CC)NC(=O)[C@@H]2C[C@@H]3CCCC[C@@H]3N2C(=O)[C@@H]2CCCN2C(=O)[C@H](CC(C)C)NC(=O)[C@H](CO)NC(=O)[C@H](CCCNC(=N)N)NC(=O)[C@H](CO)NC1=O
B5: ((N-Me)G)-IC+SRS-((tBu)A)-PPI-(Pen)+IP-(PEG5-CH2CO2H(18 atoms))-OH (peptide)
peptide: [Sar]ICSRS[tBuAla]PPI[Pen]IP[NH(CH2CH2O)5CH2CO]-OH
modifications: disulfide 3-11; N-terminus assumed
SMILES: CC[C@H](C)[C@H](NC(=O)CNC)C(=O)N[C@H]1CSSC(C)(C)[C@@H](C(=O)N[C@H](C(=O)N2CCC[C@H]2C(=O)NCCOCCOCCOCCOCCOCC(=O)O)[C@@H](C)CC)NC(=O)[C@H]([C@@H](C)CC)NC(=O)[C@@H]2CCCN2C(=O)[C@@H]2CCCN2C(=O)[C@H](CC(C)(C)C)NC(=O)[C@H](CO)NC(=O)[C@H](CCCNC(=N)N)NC(=O)[C@H](CO)NC1=O
B6: ((S)-Piperidine-3-Carboxylic Acid)-IC+SRSLP-(Oic)-I-(Pen)+IPD-OH (peptide)
peptide: [X11]ICSRSLP[Oic]I[Pen]IPD-OH
modifications: disulfide 3-11; N-terminus assumed
SMILES: CC[C@H](C)[C@H](NC(=O)[C@H]1CCCNC1)C(=O)N[C@H]1CSSC(C)(C)[C@@H](C(=O)N[C@H](C(=O)N2CCC[C@H]2C(=O)N[C@@H](CC(=O)O)C(=O)O)[C@@H](C)CC)NC(=O)[C@H]([C@@H](C)CC)NC(=O)[C@@H]2C[C@@H]3CCCC[C@@H]3N2C(=O)[C@@H]2CCCN2C(=O)[C@H](CC(C)C)NC(=O)[C@H](CO)NC(=O)[C@H](CCCNC(=N)N)NC(=O)[C@H](CO)NC1=O
B7: ((N-Me)G)-IC+SRSLP-(Oic)-I-(Pen)+IPGd-OH (peptide)
peptide: [Sar]ICSRSLP[Oic]I[Pen]IPG[dD]-OH
modifications: disulfide 3-11; N-terminus assumed
SMILES: CC[C@H](C)[C@H](NC(=O)CNC)C(=O)N[C@H]1CSSC(C)(C)[C@@H](C(=O)N[C@H](C(=O)N2CCC[C@H]2C(=O)NCC(=O)N[C@H](CC(=O)O)C(=O)O)[C@@H](C)CC)NC(=O)[C@H]([C@@H](C)CC)NC(=O)[C@@H]2C[C@@H]3CCCC[C@@H]3N2C(=O)[C@@H]2CCCN2C(=O)[C@H](CC(C)C)NC(=O)[C@H](CO)NC(=O)[C@H](CCCNC(=N)N)NC(=O)[C@H](CO)NC1=O
B8: ((N-Me)G)-IC+SRS-((tBu)A)-PPI-(Pen)+IP-(PEG1(10 atoms))-OH (peptide)
peptide: [Sar]ICSRS[tBuAla]PPI[Pen]IP[PEG2]-OH
modifications: disulfide 3-11; N-terminus assumed
SMILES: CC[C@H](C)[C@H](NC(=O)CNC)C(=O)N[C@H]1CSSC(C)(C)[C@@H](C(=O)N[C@H](C(=O)N2CCC[C@H]2C(=O)NCCOCCOCCC(=O)O)[C@@H](C)CC)NC(=O)[C@H]([C@@H](C)CC)NC(=O)[C@@H]2CCCN2C(=O)[C@@H]2CCCN2C(=O)[C@H](CC(C)(C)C)NC(=O)[C@H](CO)NC(=O)[C@H](CCCNC(=N)N)NC(=O)[C@H](CO)NC1=O
B9: (4-Carboxybenzoic acid)-GIC+SRSLP-(Oic)-I-(Pen)+IPD-OH (peptide)
peptide: {Benzoyl(4-COOH)}-GICSRSLP[Oic]I[Pen]IPD-OH
modifications: disulfide 3-11
SMILES: CC[C@H](C)[C@H](NC(=O)CNC(=O)c1ccc(C(=O)O)cc1)C(=O)N[C@H]1CSSC(C)(C)[C@@H](C(=O)N[C@H](C(=O)N2CCC[C@H]2C(=O)N[C@@H](CC(=O)O)C(=O)O)[C@@H](C)CC)NC(=O)[C@H]([C@@H](C)CC)NC(=O)[C@@H]2C[C@@H]3CCCC[C@@H]3N2C(=O)[C@@H]2CCCN2C(=O)[C@H](CC(C)C)NC(=O)[C@H](CO)NC(=O)[C@H](CCCNC(=N)N)NC(=O)[C@H](CO)NC1=O
B10: ((N-Me)G)-IC+SRSLP-(Oic)-I-(Pen)+IPY-OH (peptide)
peptide: [Sar]ICSRSLP[Oic]I[Pen]IPY-OH
modifications: disulfide 3-11; N-terminus assumed
SMILES: CC[C@H](C)[C@H](NC(=O)CNC)C(=O)N[C@H]1CSSC(C)(C)[C@@H](C(=O)N[C@H](C(=O)N2CCC[C@H]2C(=O)N[C@@H](Cc2ccc(O)cc2)C(=O)O)[C@@H](C)CC)NC(=O)[C@H]([C@@H](C)CC)NC(=O)[C@@H]2C[C@@H]3CCCC[C@@H]3N2C(=O)[C@@H]2CCCN2C(=O)[C@H](CC(C)C)NC(=O)[C@H](CO)NC(=O)[C@H](CCCNC(=N)N)NC(=O)[C@H](CO)NC1=O
B11: (3-Carboxybenzoic acid)-GIC+SRSLP-(Oic)-I-(Pen)+IPD-OH (peptide)
peptide: {Benzoyl(3-COOH)}-GICSRSLP[Oic]I[Pen]IPD-OH
modifications: disulfide 3-11
SMILES: CC[C@H](C)[C@H](NC(=O)CNC(=O)c1cccc(C(=O)O)c1)C(=O)N[C@H]1CSSC(C)(C)[C@@H](C(=O)N[C@H](C(=O)N2CCC[C@H]2C(=O)N[C@@H](CC(=O)O)C(=O)O)[C@@H](C)CC)NC(=O)[C@H]([C@@H](C)CC)NC(=O)[C@@H]2C[C@@H]3CCCC[C@@H]3N2C(=O)[C@@H]2CCCN2C(=O)[C@H](CC(C)C)NC(=O)[C@H](CO)NC(=O)[C@H](CCCNC(=N)N)NC(=O)[C@H](CO)NC1=O
B12: ((N-Me)G)-IC+SRS-((tBu)A)-PPI-(Pen)+IP-(PEG9(31 atoms))-OH (peptide)
peptide: [Sar]ICSRS[tBuAla]PPI[Pen]IP-{PEG9-OH}
modifications: disulfide 3-11
B13: ((N-Me)G)-IC+SRSLP-(Oic)-I-(Pen)+IPDA-OH (peptide)
peptide: [Sar]ICSRSLP[Oic]I[Pen]IPDA-OH
modifications: disulfide 3-11; N-terminus assumed
SMILES: CC[C@H](C)[C@H](NC(=O)CNC)C(=O)N[C@H]1CSSC(C)(C)[C@@H](C(=O)N[C@H](C(=O)N2CCC[C@H]2C(=O)N[C@@H](CC(=O)O)C(=O)N[C@@H](C)C(=O)O)[C@@H](C)CC)NC(=O)[C@H]([C@@H](C)CC)NC(=O)[C@@H]2C[C@@H]3CCCC[C@@H]3N2C(=O)[C@@H]2CCCN2C(=O)[C@H](CC(C)C)NC(=O)[C@H](CO)NC(=O)[C@H](CCCNC(=N)N)NC(=O)[C@H](CO)NC1=O
B14: ((N-Me)G)-IC+SRSLP-(Oic)-I-(Pen)+IPT-OH (peptide)
peptide: [Sar]ICSRSLP[Oic]I[Pen]IPT-OH
modifications: disulfide 3-11; N-terminus assumed
SMILES: CC[C@H](C)[C@H](NC(=O)CNC)C(=O)N[C@H]1CSSC(C)(C)[C@@H](C(=O)N[C@H](C(=O)N2CCC[C@H]2C(=O)N[C@H](C(=O)O)[C@@H](C)O)[C@@H](C)CC)NC(=O)[C@H]([C@@H](C)CC)NC(=O)[C@@H]2C[C@@H]3CCCC[C@@H]3N2C(=O)[C@@H]2CCCN2C(=O)[C@H](CC(C)C)NC(=O)[C@H](CO)NC(=O)[C@H](CCCNC(=N)N)NC(=O)[C@H](CO)NC1=O
B15: ((N-Me)G)-IC+SRS-((tBu)A)-PPI-(Pen)+IP-((N-Me)G)-((N-Me)G)-((N-Me)G)-OH (peptide)
peptide: [Sar]ICSRS[tBuAla]PPI[Pen]IP[Sar][Sar][Sar]-OH
modifications: disulfide 3-11; N-terminus assumed
SMILES: CC[C@H](C)[C@H](NC(=O)CNC)C(=O)N[C@H]1CSSC(C)(C)[C@@H](C(=O)N[C@H](C(=O)N2CCC[C@H]2C(=O)N(C)CC(=O)N(C)CC(=O)N(C)CC(=O)O)[C@@H](C)CC)NC(=O)[C@H]([C@@H](C)CC)NC(=O)[C@@H]2CCCN2C(=O)[C@@H]2CCCN2C(=O)[C@H](CC(C)(C)C)NC(=O)[C@H](CO)NC(=O)[C@H](CCCNC(=N)N)NC(=O)[C@H](CO)NC1=O
B16: ((N-Me)G)-IC+SRS-((tBu)A)-PPI-(Pen)+IP-(PEG8(28 atoms))-OH (peptide)
peptide: [Sar]ICSRS[tBuAla]PPI[Pen]IP-{PEG8-OH}
modifications: disulfide 3-11

Molecular target: T1, Recombinant human MASP1 active protease (amino acids 297-699, C-terminal His Tag) (human, UniProt P48740 297-699)
T1 sequence: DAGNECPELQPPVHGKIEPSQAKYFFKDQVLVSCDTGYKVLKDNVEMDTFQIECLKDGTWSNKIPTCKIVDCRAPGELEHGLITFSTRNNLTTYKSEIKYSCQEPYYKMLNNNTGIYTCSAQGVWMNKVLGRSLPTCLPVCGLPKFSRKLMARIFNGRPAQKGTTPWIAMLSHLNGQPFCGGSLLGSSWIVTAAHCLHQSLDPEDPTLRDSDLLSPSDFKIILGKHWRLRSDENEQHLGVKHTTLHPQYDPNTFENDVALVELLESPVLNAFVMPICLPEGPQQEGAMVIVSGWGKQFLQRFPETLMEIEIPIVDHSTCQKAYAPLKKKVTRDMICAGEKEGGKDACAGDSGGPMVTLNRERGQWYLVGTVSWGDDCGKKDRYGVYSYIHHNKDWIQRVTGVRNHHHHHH
Assay: cell-based or functional assay

Binder | human MASP1 IC50 (FRET substrate cleavage, enzyme activity) [nM]
B1 | 8
B2 | 15.6
B3 | 3.6

Molecular target: Recombinant human MASP2 active protease (amino acids 297-686, C-terminal His Tag) (human, UniProt O00187 297-686)
Sequence (O00187 other isoform, or with tags, fused parts or gaps limits assumed): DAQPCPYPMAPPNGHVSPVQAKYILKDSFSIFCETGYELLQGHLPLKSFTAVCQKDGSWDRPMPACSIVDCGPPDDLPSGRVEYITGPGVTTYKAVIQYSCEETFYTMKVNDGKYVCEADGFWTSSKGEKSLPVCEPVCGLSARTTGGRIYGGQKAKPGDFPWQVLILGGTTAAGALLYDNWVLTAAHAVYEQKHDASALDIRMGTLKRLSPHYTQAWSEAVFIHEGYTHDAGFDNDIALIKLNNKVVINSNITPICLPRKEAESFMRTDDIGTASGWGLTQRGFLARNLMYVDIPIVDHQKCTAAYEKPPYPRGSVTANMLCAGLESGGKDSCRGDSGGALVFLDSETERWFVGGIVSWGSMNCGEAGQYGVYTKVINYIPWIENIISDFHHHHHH
Assay: cell-based or functional assay

Binder | human MASP2 IC50 (FRET substrate cleavage, enzyme activity) [nM]
B1 | 390
B2 | 1090
B3 | 3000

Molecular target: T2, Recombinant human MASP1 enzyme (fragment corresponding to amino acids 297-699, C-terminal His Tag) (human, UniProt P48740 297-699)
T2 sequence: T1 sequence
Assay: cell-based or functional assay

Binder | human MASP1 IC50 [nM]
B4 | 5.2
B5 | 2
B6 | 2.4
B7 | 3.4
B8 | 2.3
B9 | 19.5
B10 | 3.2
B11 | 58
B12 | 6.3
B13 | 2.6
B14 | 3
B15 | 2.3
B16 | 7.9

Molecular target: Recombinant human MASP2 enzyme (fragment corresponding to amino acids 297-686, C-terminal His Tag) (human, UniProt O00187 297-686)
Sequence (O00187 other isoform, or with tags, fused parts or gaps limits assumed): as above
Assay: cell-based or functional assay

Binder | human MASP2 IC50 [nM]
B4 | 110
B5 | 31
B6 | 32
B7 | 37
B8 | 39
B9 | 21
B10 | 120
B11 | 43
B12 | 62
B13 | 84
B14 | 180
B15 | 47
B16 | 76
